Experimental data published in patent publication US20260242735A1 (UNIVERSIT T BASEL, published 2026).

B1: Refmab #2 (antibody, human IgG1, V domains shown)
VH: QVQLVQSGAEVKKPGSSVKVSCKASGGTFSDYAISWVRQAPGQGLEWMGRIIPILGVADYAQKFQGRVTITADKSTRTAYMELSSLRSEDTAVYYCARNWADAFDIWGQGTMVTVSS
VL: DIQLTQSPSSLSASVGDRVTITCRASQGISSVLAWYQQKPGKAPKLLIYDASSLESGVPSRFSGSGSGTDFTLTISSLQPEDFATYYCQQFDSSITFGQGTKLEIK
notes: Tested in IgG format; human IgG1 Fc silent (PG-LALA)
B2: Refmab #3 (antibody, human IgG1, V domains shown)
VH: QVQLVQSGAEVKKPGSSVKVSCKASGYTFTDYNMHWVRQAPGQGLEWIGYIYPYNGGTGYNQKFKSKATITADESTNTAYMELSSLRSEDTAVYYCARGRPAMDYWGQGTLVTVSS
VL: DIQMTQSPSSLSASVGDRVTITCRASESVDNYGISFMNWFQQKPGKAPKLLIYAASNQGSGVPSRFSGSGSGTDFTLTISSLQPDDFATYYCQQSKEVPWTFGQGTKVEIK
notes: as for B1
B3: Refmab #1 (antibody, human IgG1, V domains shown)
VH: EVQLVQSGAEVKKPGSSVKVSCKASGYTITDSNIHWVRQAPGQSLEWIGYIYPYNGGTDYNQKFKNRATLTVDNPTNTAYMELSSLRSEDTAFYYCVNGNPWLAYWGQGTLVTVSS
VL: DIQLTQSPSTLSASVGDRVTITCRASESLDNYGIRFLTWFQQKPGKAPKLLMYAASNQGSGVPSRFSGSGSGTEFTLTISSLQPDDFATYYCQQTKEVPWSFGQGTKVEVK
notes: Tested in IgG format; human IgG1 (Absolute Antibody hP67.6, Cat. No. Ab00283-10.0); also called hP67.6
B4: Refmab #4 (antibody, human IgG1, V domains shown)
VH: QVQLVQSGAEVKKPGESVKVSCKASGYTFTNYGMNWVKQAPGQGLEWMGWINTYTGEPTYADKFQGRVTMTTDTSTSTAYMEIRNLGGDDTAVYYCARWSWSDGYYVYFDYWGQGTSVTVSS
VL: DIVMTQSPDSLTVSLGERTTINCKSSQSVLDSSTNKNSLAWYQQKPGQPPKLLLSWASTRESGIPDRFSGSGSGTDFTLTIDSPQPEDSATYYCQQSAHFPITFGQGTRLEIK
notes: as for B1

The binders below were run against human CD33 F44V (human, UniProt P20138 18-364) (assay: flow cytometry, mutant on cells, IgG).
Method: (§1) An alanine scan on human CD33 was performed to the determine the residues on CD33 that are involved in binding to the antibodies investigated. […] Briefly, a mutation library of CD33 was created by high-throughput, site-directed mutagenesis. Each residue was individually mutated to alanine, with alanine codons mutated to serine. The mutant library was arrayed in 384-well microplates and transiently transfected into HEK293-T. Following transfection, cells were incubated with the indicated antibodies (IgG or Fab) at concentrations pre-determined using an independent immunofluorescence titration curve on wild type CD33. […] Binding of each antibody to each mutant clone was determined in duplicates. For each point, background fluorescence was subtracted from the raw data, which were then normalized to antibody reactivity with wild type CD33.
(§2) Antibodies were screened for binding to the human CD33 variants in IgG format. […] For each mutation, background fluorescence was subtracted from the raw data, which were then normalized to antibody reactivity with wild-type CD33.

| Mean % WT Binding [% WT binding] | Binder |
| --- | --- |
| 2.3 | B1 |
| 101 | B2 |
| 99.5 | B3 |
| 96.6 | B4 |

The binders below were run against human CD33 D18R (human, UniProt P20138 19-364) (assay: flow cytometry, mutant on cells, IgG).
Sequence of human CD33 D18R (P20138 18-364 D18R limits assumed): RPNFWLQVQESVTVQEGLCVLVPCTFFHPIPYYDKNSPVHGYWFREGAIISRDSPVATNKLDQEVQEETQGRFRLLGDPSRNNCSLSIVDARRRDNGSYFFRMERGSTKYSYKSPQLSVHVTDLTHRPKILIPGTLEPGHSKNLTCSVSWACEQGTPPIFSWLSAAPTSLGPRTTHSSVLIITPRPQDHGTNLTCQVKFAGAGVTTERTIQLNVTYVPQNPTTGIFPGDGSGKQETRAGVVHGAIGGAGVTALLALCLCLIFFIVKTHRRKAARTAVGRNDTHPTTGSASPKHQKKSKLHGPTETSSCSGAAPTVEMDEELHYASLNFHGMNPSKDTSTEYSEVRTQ
Method: as §1, §2

| Mean % WT Binding [% WT binding] | Binder |
| --- | --- |
| 96.5 | B1 |
| 5.3 | B2 |
| 60.6 | B3 |
| 100 | B4 |

What follows are binders tested against human CD33 Q24S (human, UniProt P20138 18-364) (assay: flow cytometry, mutant on cells, IgG).
Sequence of human CD33 Q24S (P20138 18-364 Q24S limits assumed): as the sequence (P20138 18-364 D18R limits assumed) above, with R1D, Q7S counted along it
Method: as §1, §2

| Mean % WT Binding [% WT binding] | Binder |
| --- | --- |
| 108 | B1 |
| 5.3 | B2 |
| 60.2 | B3 |
| 96.8 | B4 |

Each binder was assayed against human CD33 N20E (human, UniProt P20138 18-364) (assay: flow cytometry, mutant on cells, IgG).
Sequence of human CD33 N20E (P20138 18-364 N20E limits assumed): as the sequence (P20138 18-364 D18R limits assumed) above, with R1D, N3E counted along it
Method: as §1, §2

| Mean % WT Binding [% WT binding] | Binder |
| --- | --- |
| 120 | B1 |
| 0.5 | B2 |
| 0.3 | B3 |
| 100 | B4 |

Each binder was assayed against human CD33 V25M (human, UniProt P20138 18-364) (assay: flow cytometry, mutant on cells, IgG).
Sequence of human CD33 V25M (P20138 18-364 V25M limits assumed): as the sequence (P20138 18-364 D18R limits assumed) above, with R1D, V8M counted along it
Method: as §1, §2

| Mean % WT Binding [% WT binding] | Binder |
| --- | --- |
| 83 | B1 |
| 90.4 | B2 |
| 97.3 | B3 |
| 81.1 | B4 |

These binders were tested against human CD33 F44S (human, UniProt P20138 18-364) (assay: flow cytometry, mutant on cells, IgG).
Method: as §1, §2

| Mean % WT Binding [% WT binding] | Binder |
| --- | --- |
| 0.8 | B1 |
| 11.4 | B2 |
| 79.8 | B3 |
| 93.8 | B4 |

The binders below were run against human CD33 T42K (human, UniProt P20138 18-364) (assay: flow cytometry, mutant on cells, IgG).
Method: as §1, §2

| Mean % WT Binding [% WT binding] | Binder |
| --- | --- |
| 95.5 | B1 |
| 103 | B2 |
| 106 | B3 |
| 86 | B4 |

What follows are binders tested against human CD33 P19D (human, UniProt P20138 18-364) (assay: flow cytometry, mutant on cells, IgG).
Sequence of human CD33 P19D (P20138 18-364 P19D limits assumed): as the sequence (P20138 18-364 D18R limits assumed) above, with R1D, P2D counted along it
Method: as §1, §2

| Mean % WT Binding [% WT binding] | Binder |
| --- | --- |
| 99.3 | B1 |
| 0.6 | B2 |
| 2.6 | B3 |
| 94.8 | B4 |

What follows are binders tested against human CD33 F21L (human, UniProt P20138 18-364) (assay: flow cytometry, mutant on cells, IgG).
Method: as §1, §2

| Mean % WT Binding [% WT binding] | Binder |
| --- | --- |
| 120 | B1 |
| 1 | B2 |
| 4.7 | B3 |
| 114 | B4 |

These binders were tested against human CD33 T42N (human, UniProt P20138 18-364) (assay: flow cytometry, mutant on cells, IgG).
Sequence of human CD33 T42N (P20138 18-364 T42N limits assumed): as the sequence (P20138 18-364 D18R limits assumed) above, with R1D, T25N counted along it
Method: as §1, §2

| Mean % WT Binding [% WT binding] | Binder |
| --- | --- |
| 98.2 | B1 |
| 95.5 | B2 |
| 99.4 | B3 |
| 101 | B4 |

What follows are binders tested against human CD33 F21I (human, UniProt P20138 18-364) (assay: flow cytometry, mutant on cells, IgG).
Method: as §1, §2

| Mean % WT Binding [% WT binding] | Binder |
| --- | --- |
| 86.8 | B1 |
| 0.5 | B2 |
| 1.9 | B3 |
| 96.3 | B4 |

What follows are binders tested against human CD33 F44E (human, UniProt P20138 18-364) (assay: flow cytometry, mutant on cells, IgG).
Sequence of human CD33 F44E (P20138 18-364 F44E limits assumed): as the sequence (P20138 18-364 D18R limits assumed) above, with R1D, F27E counted along it
Method: as §1, §2

| Mean % WT Binding [% WT binding] | Binder |
| --- | --- |
| 1.7 | B1 |
| 33.3 | B2 |
| 92.7 | B3 |
| 112 | B4 |

These binders were tested against human CD33 W22R (human, UniProt P20138 18-364) (assay: flow cytometry, mutant on cells, IgG).
Method: as §1, §2

| Mean % WT Binding [% WT binding] | Binder |
| --- | --- |
| 115 | B1 |
| 0.9 | B2 |
| 7.4 | B3 |
| 114 | B4 |

Each binder was assayed against human CD33 N20W (human, UniProt P20138 18-364) (assay: flow cytometry, mutant on cells, IgG).
Sequence of human CD33 N20W (P20138 18-364 N20W limits assumed): as the sequence (P20138 18-364 D18R limits assumed) above, with R1D, N3W counted along it
Method: as §1, §2

| Mean % WT Binding [% WT binding] | Binder |
| --- | --- |
| 61.2 | B1 |
| 0.7 | B2 |
| 0.6 | B3 |
| 52.1 | B4 |

The binders below were run against human CD33 P46L (human, UniProt P20138 18-364) (assay: flow cytometry, mutant on cells, IgG).
Method: as §1, §2

| Mean % WT Binding [% WT binding] | Binder |
| --- | --- |
| 93.8 | B1 |
| 0.7 | B2 |
| 28.9 | B3 |
| 96.3 | B4 |

These binders were tested against human CD33 P46Y (human, UniProt P20138 18-364) (assay: flow cytometry, mutant on cells, IgG).
Method: as §1, §2

| Mean % WT Binding [% WT binding] | Binder |
| --- | --- |
| 60.1 | B1 |
| 0.8 | B2 |
| 0.9 | B3 |
| 26.5 | B4 |

These binders were tested against human CD33 I47V (human, UniProt P20138 18-364) (assay: flow cytometry, mutant on cells, IgG).
Method: as §1, §2

| Mean % WT Binding [% WT binding] | Binder |
| --- | --- |
| 97.2 | B1 |
| 100 | B2 |
| 112 | B3 |
| 99 | B4 |

What follows are binders tested against human CD33 W22N (human, UniProt P20138 18-364) (assay: flow cytometry, mutant on cells, IgG).
Sequence of human CD33 W22N (P20138 18-364 W22N limits assumed): as the sequence (P20138 18-364 D18R limits assumed) above, with R1D, W5N counted along it
Method: as §1, §2

| Mean % WT Binding [% WT binding] | Binder |
| --- | --- |
| 107 | B1 |
| 3.5 | B2 |
| 76.5 | B3 |
| 100 | B4 |

The binders below were run against human CD33 N20L (human, UniProt P20138 18-364) (assay: flow cytometry, mutant on cells, IgG).
Sequence of human CD33 N20L (P20138 18-364 N20L limits assumed): as the sequence (P20138 18-364 D18R limits assumed) above, with R1D, N3L counted along it
Method: as §1, §2

| Mean % WT Binding [% WT binding] | Binder |
| --- | --- |
| 95.8 | B1 |
| 9.4 | B2 |
| 78.5 | B3 |
| 89.8 | B4 |

Each binder was assayed against human CD33 F21H (human, UniProt P20138 18-364) (assay: flow cytometry, mutant on cells, IgG).
Method: as §1, §2

| Mean % WT Binding [% WT binding] | Binder |
| --- | --- |
| 117 | B1 |
| 1.4 | B2 |
| 20.6 | B3 |
| 123 | B4 |

These binders were tested against human CD33 Q24V (human, UniProt P20138 18-364) (assay: flow cytometry, mutant on cells, IgG).
Method: as §1, §2

| Mean % WT Binding [% WT binding] | Binder |
| --- | --- |
| 99.3 | B1 |
| 24.5 | B2 |
| 92.6 | B3 |
| 81.5 | B4 |

Each binder was assayed against human CD33 F44Q (human, UniProt P20138 18-364) (assay: flow cytometry, mutant on cells, IgG).
Method: as §1, §2

| Mean % WT Binding [% WT binding] | Binder |
| --- | --- |
| 0.5 | B1 |
| 105 | B2 |
| 106 | B3 |
| 102 | B4 |

These binders were tested against human CD33 W22G (human, UniProt P20138 18-364) (assay: flow cytometry, mutant on cells, IgG).
Method: as §1, §2

| Mean % WT Binding [% WT binding] | Binder |
| --- | --- |
| 113 | B1 |
| 9 | B2 |
| 89.6 | B3 |
| 105 | B4 |

The binders below were run against human CD33 F21S (human, UniProt P20138 18-364) (assay: flow cytometry, mutant on cells, IgG).
Method: as §1, §2

| Mean % WT Binding [% WT binding] | Binder |
| --- | --- |
| 115 | B1 |
| 3.4 | B2 |
| 6.4 | B3 |
| 118 | B4 |

These binders were tested against human CD33 F44T (human, UniProt P20138 18-364) (assay: flow cytometry, mutant on cells, IgG).
Method: as §1, §2

| Mean % WT Binding [% WT binding] | Binder |
| --- | --- |
| 0.8 | B1 |
| 83.3 | B2 |
| 107 | B3 |
| 97.1 | B4 |

What follows are binders tested against human CD33 P46D (human, UniProt P20138 18-364) (assay: flow cytometry, mutant on cells, IgG).
Method: as §1, §2

| Mean % WT Binding [% WT binding] | Binder |
| --- | --- |
| 100 | B1 |
| 0.6 | B2 |
| 0.6 | B3 |
| 110 | B4 |

The binders below were run against human CD33 N20T (human, UniProt P20138 18-364) (assay: flow cytometry, mutant on cells, IgG).
Method: as §1, §2

| Mean % WT Binding [% WT binding] | Binder |
| --- | --- |
| 116 | B1 |
| 2.2 | B2 |
| 6.9 | B3 |
| 92.1 | B4 |

What follows are binders tested against human CD33 Q24I (human, UniProt P20138 18-364) (assay: flow cytometry, mutant on cells, IgG).
Sequence of human CD33 Q24I (P20138 18-364 Q24I limits assumed): as the sequence (P20138 18-364 D18R limits assumed) above, with R1D, Q7I counted along it
Method: as §1, §2

| Mean % WT Binding [% WT binding] | Binder |
| --- | --- |
| 96.8 | B1 |
| 61.3 | B2 |
| 80 | B3 |
| 86.6 | B4 |

These binders were tested against human CD33 P46I (human, UniProt P20138 18-364) (assay: flow cytometry, mutant on cells, IgG).
Sequence of human CD33 P46I (P20138 18-364 P46I limits assumed): as the sequence (P20138 18-364 D18R limits assumed) above, with R1D, P29I counted along it
Method: as §1, §2

| Mean % WT Binding [% WT binding] | Binder |
| --- | --- |
| 55.8 | B1 |
| 1.8 | B2 |
| 38.2 | B3 |
| 91 | B4 |

Each binder was assayed against human CD33 W22L (human, UniProt P20138 18-364) (assay: flow cytometry, mutant on cells, IgG).
Method: as §1, §2

| Mean % WT Binding [% WT binding] | Binder |
| --- | --- |
| 110 | B1 |
| 1.5 | B2 |
| 45.8 | B3 |
| 108 | B4 |

What follows are binders tested against human CD33 D18N (human, UniProt P20138 19-364) (assay: flow cytometry, mutant on cells, IgG).
Sequence of human CD33 D18N (P20138 18-364 D18N limits assumed): as the sequence (P20138 18-364 D18R limits assumed) above, with R1N counted along it
Method: as §1, §2

| Mean % WT Binding [% WT binding] | Binder |
| --- | --- |
| 59.2 | B1 |
| 71.5 | B2 |
| 69.6 | B3 |
| 76 | B4 |

The binders below were run against human CD33 I47T (human, UniProt P20138 18-364) (assay: flow cytometry, mutant on cells, IgG).
Method: as §1, §2

| Mean % WT Binding [% WT binding] | Binder |
| --- | --- |
| 1.8 | B1 |
| 72.4 | B2 |
| 97.2 | B3 |
| 82.4 | B4 |

These binders were tested against human CD33 N20Q (human, UniProt P20138 18-364) (assay: flow cytometry, mutant on cells, IgG).
Method: as §1, §2

| Mean % WT Binding [% WT binding] | Binder |
| --- | --- |
| 125 | B1 |
| 3.4 | B2 |
| 2.8 | B3 |
| 99.4 | B4 |

What follows are binders tested against human CD33 W22S (human, UniProt P20138 18-364) (assay: flow cytometry, mutant on cells, IgG).
Method: as §1, §2

| Mean % WT Binding [% WT binding] | Binder |
| --- | --- |
| 105 | B1 |
| 1.4 | B2 |
| 74.3 | B3 |
| 103 | B4 |

The binders below were run against human CD33 F44H (human, UniProt P20138 18-364) (assay: flow cytometry, mutant on cells, IgG).
Method: as §1, §2

| Mean % WT Binding [% WT binding] | Binder |
| --- | --- |
| 0.4 | B1 |
| 91.2 | B2 |
| 97.6 | B3 |
| 84.9 | B4 |

Each binder was assayed against human CD33 N20Y (human, UniProt P20138 18-364) (assay: flow cytometry, mutant on cells, IgG).
Method: as §1, §2

| Mean % WT Binding [% WT binding] | Binder |
| --- | --- |
| 34.7 | B1 |
| 0.6 | B2 |
| 0.4 | B3 |
| 25.7 | B4 |

What follows are binders tested against human CD33 V25S (human, UniProt P20138 18-364) (assay: flow cytometry, mutant on cells, IgG).
Sequence of human CD33 V25S (P20138 18-364 V25S limits assumed): as the sequence (P20138 18-364 D18R limits assumed) above, with R1D, V8S counted along it
Method: as §1, §2

| Mean % WT Binding [% WT binding] | Binder |
| --- | --- |
| 110 | B1 |
| 104 | B2 |
| 106 | B3 |
| 106 | B4 |
